Results: PMC3988998, “Molecular Mechanism of Antibody-Mediated Activation of β-galactosidase” (Structure(London, England:1993), 2014)

Target: T1, Escherichia coli β-galactosidase (E. coli, UniProt P00722 = β-galactosidase)
T1 construct: β-galactosidase of E. coli, encoded by lacZ; Wild-type commercial enzyme; source: bought: Sigma catalog no; G3153
Assay: cryo-EM structure; β-gal mixed with scFv13R4 in a 1:10 stoichiometric ratio (2.5-fold excess), 1 hr on ice; single-particle cryo-EM, map at ~13 Å; rigid-body docking of β-gal (1F4A) and of the HyHEL-10 Fv (3A6B)
Details: both partners purified

T1 sequence (P00722 whole entry): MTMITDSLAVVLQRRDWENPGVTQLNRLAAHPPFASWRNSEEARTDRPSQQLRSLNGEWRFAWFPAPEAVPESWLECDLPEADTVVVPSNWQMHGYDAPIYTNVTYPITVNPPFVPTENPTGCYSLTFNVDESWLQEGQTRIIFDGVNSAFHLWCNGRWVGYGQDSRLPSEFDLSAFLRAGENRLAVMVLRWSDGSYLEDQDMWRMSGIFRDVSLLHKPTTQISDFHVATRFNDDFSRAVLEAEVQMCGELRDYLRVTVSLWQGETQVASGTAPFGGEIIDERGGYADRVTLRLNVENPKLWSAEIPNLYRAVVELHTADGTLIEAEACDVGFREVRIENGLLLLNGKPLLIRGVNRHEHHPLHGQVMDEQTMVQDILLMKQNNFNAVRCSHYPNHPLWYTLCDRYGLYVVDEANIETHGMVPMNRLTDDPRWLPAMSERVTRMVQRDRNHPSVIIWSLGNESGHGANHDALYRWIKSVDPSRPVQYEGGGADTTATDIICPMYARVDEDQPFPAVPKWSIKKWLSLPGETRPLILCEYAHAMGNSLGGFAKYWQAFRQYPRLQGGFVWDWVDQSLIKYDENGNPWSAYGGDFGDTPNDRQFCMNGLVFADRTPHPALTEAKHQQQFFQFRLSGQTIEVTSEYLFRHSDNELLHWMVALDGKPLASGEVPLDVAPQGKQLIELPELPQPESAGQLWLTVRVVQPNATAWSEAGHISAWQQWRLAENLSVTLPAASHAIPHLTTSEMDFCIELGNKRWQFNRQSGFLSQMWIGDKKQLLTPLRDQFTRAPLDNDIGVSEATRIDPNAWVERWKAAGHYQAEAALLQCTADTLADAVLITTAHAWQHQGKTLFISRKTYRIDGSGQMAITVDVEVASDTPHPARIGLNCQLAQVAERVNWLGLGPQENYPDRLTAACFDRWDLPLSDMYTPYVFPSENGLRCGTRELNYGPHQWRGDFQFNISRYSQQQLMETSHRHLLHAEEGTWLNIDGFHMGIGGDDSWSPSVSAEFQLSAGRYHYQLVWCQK

B1: scFv13R4 (scFv, V domains shown)
VH: EVQLVESGGSLVKPGGSLRLSCAASGFTFSNYSMNWVRQAPGKGLEWISSISGSSRYIYYADFVKGRFTISRDNATNSLYLQMNSLRAEDTAVYYCVRSSITIFGGGMDVWGRGTLVTVSS
VL: QSVLTQPASVSGSPGQSITISCAGTSSDVGGYNYVSWYQQHPGKAPKLMIYEDSKRPSGVSNRFSGSKSGNTASLTISGLQAEDEADYYCSSYTTRSTRVFGGGTKLAVL
notes: model of the complex deposited as PDB 4CKD, built by docking the HyHEL-10 Fv of PDB 3A6B; 28 kDa single-chain Fv selected for cytoplasmic expression (Martineau et al., 1998); The preparation held GroEL as an impurity; also called Fv antibody; source: E. coli strain PM12 (BL21 (DE3) pLysS with a lacZ:Tn5 mutation), pET 16b, purified (nickel-nitrilotriacetic acid column)
- stoichiometry N: 1 Fv per β-gal subunit
